Results published in US20220177587A1, “METHODS AND USES OF VARIANT CD80 FUSION PROTEINS AND RELATED CONSTRUCTS” (Alpine Immune Sciences, Inc., priority 2018, published 2022).

What was measured:
CD28 [1] = biological target: T1, CD28 (Homo sapiens, UniProt P10747); test: Flow binding to Jurkat/IL2 reporter cells (CD28); design: host or cells: Jurkat cells expressing an IL-2-luciferase reporter; details: for CD28 Fold change to WT CD80: relative to CD80 WT IgV-Fc
How it was run: (§1)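 Binding EC50 and PE mean fluorescence intensity derived by flow cytometry using PE-labelled anti-human Fc secondary. Target cells were CTLA4- or PD-L1-transfected CHO lines and CD28-expressing Jurkat/IL2 reporter cells, stained with fusion proteins on ice for 45 min following BSA blocking.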

CD28 [2] = biological target: T1, CD28; test: Jurkat/IL2 + CHO/OKT3 +/- PD-L1 reporter assay: PD-L1-dependent CD28 costimulation; assay type: cell-based; design: host or cells: Jurkat cells expressing an IL-2-luciferase reporter; details: Jurkat/IL2 + CHO/OKT3/PD-L1
How it was run: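 Readout is relative luminescence from lysed cocultures: test protein given 15 min at room temperature to Jurkat cells before adding CHO artificial APCs displaying OKT3 alone or OKT3 plus PD-L1, then 5 h at 37 °C, 5% CO2.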

huCTLA4 = huCTLA4 (Homo sapiens, UniProt P16410); test: Flow binding to CHO cells stably expressing CTLA4; design: huCTLA4 and huPD-L1, full-length mammalian surface expression constructs were generated; expressed in transfected cells; host or cells: CHO cells, lentiviral transduction, sorted to >98% purity; details: for CTLA4 MFI at 33.3 nM: CHO cells stably expressing CTLA4; for CTLA4 Fold change to WT CD80: relative to CD80 WT IgV-Fc
How it was run: as §1

huPD-L1 = huPD-L1 (Homo sapiens, UniProt Q9NZQ7); test: Flow binding to CHO cells stably expressing PD-L1; design: huCTLA4 and huPD-L1, full-length mammalian surface expression constructs were generated; expressed in transfected cells; host or cells: CHO cells, lentiviral transduction, sorted to >98% purity; details: Table E10; for PD-L1 MFI at 33.3 nM: CHO cells stably expressing PD-L1; for PD-L1 MFI at 33.3 nM / PD-L1 Fold change to WT CD80: 33.3 nM; for PD-L1 Fold change to WT CD80: relative to CD80 WT IgV-Fc; for Ratio of PDL1:CD28: binding to PD-L1 compared to binding to CD28
How it was run: as §1

[3] = Table E10, 33.3 nM, Jurkats (CD28)
[4] = Table E11, Jurkats (CD28), 33.3 nM
[5] = Table E23, CD80 IgV-Fc (inert) at 33.3 nM, Jurkat (CD28)
[6] = Table E23, CD80 IgV-Fc (inert) at 33.3 nM

Chain of huCTLA4 (P16410 36-223): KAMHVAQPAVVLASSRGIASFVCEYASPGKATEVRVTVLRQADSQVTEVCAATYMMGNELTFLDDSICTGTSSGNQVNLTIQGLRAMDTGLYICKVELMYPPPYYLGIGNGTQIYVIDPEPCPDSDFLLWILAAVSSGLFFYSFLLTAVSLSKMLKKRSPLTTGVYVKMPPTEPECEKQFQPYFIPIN
Chain of huPD-L1 (Q9NZQ7 19-290): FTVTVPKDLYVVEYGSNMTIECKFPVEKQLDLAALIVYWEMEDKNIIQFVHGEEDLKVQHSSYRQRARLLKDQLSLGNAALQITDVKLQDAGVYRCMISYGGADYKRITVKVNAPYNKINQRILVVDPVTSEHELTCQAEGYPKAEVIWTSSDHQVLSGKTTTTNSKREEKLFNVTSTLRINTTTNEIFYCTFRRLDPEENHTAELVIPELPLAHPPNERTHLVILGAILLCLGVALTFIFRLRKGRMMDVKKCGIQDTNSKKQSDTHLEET

B1: M47I/A71G (protein)
chain: VIHVTKEVKEVATLSCGHNVSVEELAQTRIYWQKEKKMVLTMMSGDINIWPEYKNRTIFDITNNLSIVILGLRPSDEGTYECVVLKYEKDAFKREHLAEVTLSVKAD
CD28 MFI at 33.3 nM (CD28 [1]; [3]): 823 | CD28 Fold change to WT CD80 (CD28 [1]; Table E10, 33.3 nM): 12.5 | Fold Increase over WT CD80-IgV-Fe (CD28 [2]; Table E12, 5.0 nM): 4.4 | Relative Luciferase Units (RLU), CD80 Cone 5.0 nM (CD28 [2]; Table E12, 5.0 nM): 1762 RLU | CTLA4 MFI at 33.3 nM (huCTLA4; Table E10, 33.3 nM): 27768 | CTLA4 Fold change to WT CD80 (huCTLA4; Table E10, 33.3 nM): 14.5 | PD-L1 MFI at 33.3 nM (huPD-L1): 5097 | PD-L1 Fold change to WT CD80 (huPD-L1): 72.5 | Ratio of PDL1:CD28 (huPD-L1): 6

B2: H18Y/A26E/A71G/D90G (protein)
chain: VIHVTKEVKEVATLSCGYNVSVEELEQTRIYWQKEKKMVLTMMSGDMNIWPEYKNRTIFDITNNLSIVILGLRPSDEGTYECVVLKYEKGAFKREHLAEVTLSVKAD
CD28 MFI at 33.3 nM (CD28 [1]; Table E20, Jurkats (CD28), 33.3 nM): 2001 | Relative Luciferase Units (RLU), CD80 Conc 5.0 nM (CD28 [2]; Table E22, CD80 Conc 5.0 nM): 933 RLU | CTLA4 MFI at 33.3 nM (huCTLA4; Table E20, 33.3 nM): 19878

B3: E35D/M43I/D46E/A71G/L85M (protein)
chain: VIHVTKEVKEVATLSCGHNVSVEELAQTRIYWQKDKKMVLTMISGEMNIWPEYKNRTIFDITNNLSIVILGLRPSDEGTYECVVMKYEKDAFKREHLAEVTLSVKAD
CD28 MFI at 33.3 nM (CD28 [1]; [3]): 200 | CD28 Fold change to WT CD80 (CD28 [1]; Table E10, 33.3 nM): 3.0 | Fold Increase over WT CD80-IgV-Fe (CD28 [2]; Table E12, 5.0 nM): 3.7 | Relative Luciferase Units (RLU), CD80 Cone 5.0 nM (CD28 [2]; Table E12, 5.0 nM): 1475 RLU | CTLA4 MFI at 33.3 nM (huCTLA4; Table E10, 33.3 nM): 26878 | CTLA4 Fold change to WT CD80 (huCTLA4; Table E10, 33.3 nM): 14.0 | PD-L1 MFI at 33.3 nM (huPD-L1): 7138 | PD-L1 Fold change to WT CD80 (huPD-L1): 101.5 | Ratio of PDL1:CD28 (huPD-L1): 36

B4: H18Y/E35D/M47V/V68M/L85M (protein, UniProt P33681 35-288, looked up, variant H18Y E35D M47V V68M L85M)
T-lymphocyte activation …: VIHVTKEVKEVATLSCGYNVSVEELAQTRIYWQKDKKMVLTMMSGDVNIWPEYKNRTIFDITNNLSIMILALRPSDEGTYECVVMKYEKDAFKREHLAEVTLSVKADFPTPSISDFEIPTSNIRRIICSTSGGFPEPHLSWLENGEELNAINTTVSQDPETELYAVSSKLDFNMTTNHSFMCLIKYGHLRVNQTFNWNTTKQEHFPDNLLPSWAITLISVNGIFVICCLTYCFAPRCRERRRNERLRRESVRPV
CD28 MFI at 33.3 nM (CD28 [1]; [4]): 373 | CD28 MFI at 33.3 nM (CD28 [1]; Table E16, consensus variants, Jurkats (CD28), 33.3 nM): 1387 | Relative Luciferase Units (RLU), CD80 Cone 5.0 nM (CD28 [2]; Table E13, 5.0 nM): 1013 RLU | Relative Luciferase Units (RLU), CD80 Cone 5.0 nM (CD28 [2]; Table E17, consensus variants, 5.0 nM): 2575 RLU | CTLA4 MFI at 33.3 nM (huCTLA4; Table E11, 33.3 nM): 18367 | CTLA4 MFI at 33.3 nM (huCTLA4; Table E16, consensus variants, 33.3 nM): 19306

B5: A26P/E35D/M47I/V68M/A71G/D90G (protein, UniProt P33681 35-288, looked up, variant A26P E35D M47I V68M A71G D90G)
T-lymphocyte activation …: VIHVTKEVKEVATLSCGHNVSVEELPQTRIYWQKDKKMVLTMMSGDINIWPEYKNRTIFDITNNLSIMILGLRPSDEGTYECVVLKYEKGAFKREHLAEVTLSVKADFPTPSISDFEIPTSNIRRIICSTSGGFPEPHLSWLENGEELNAINTTVSQDPETELYAVSSKLDFNMTTNHSFMCLIKYGHLRVNQTFNWNTTKQEHFPDNLLPSWAITLISVNGIFVICCLTYCFAPRCRERRRNERLRRESVRPV
CD28 MFI at 33.3 nM (CD28 [1]; [5]): 8189 | Relative Luciferase Units (RLU), CD80 Conc 5.0 nM (CD28 [2]; Table E24, 5.0 nM): 823 RLU | CTLA4 MFI at 33.3 nM (huCTLA4; [6]): 19761

B6: H18F/A26P/E35D/M47I/V68M/A71G/D90G (protein, UniProt P33681 35-288, looked up, variant H18F A26P E35D M47I V68M A71G D90G)
T-lymphocyte activation …: VIHVTKEVKEVATLSCGFNVSVEELPQTRIYWQKDKKMVLTMMSGDINIWPEYKNRTIFDITNNLSIMILGLRPSDEGTYECVVLKYEKGAFKREHLAEVTLSVKADFPTPSISDFEIPTSNIRRIICSTSGGFPEPHLSWLENGEELNAINTTVSQDPETELYAVSSKLDFNMTTNHSFMCLIKYGHLRVNQTFNWNTTKQEHFPDNLLPSWAITLISVNGIFVICCLTYCFAPRCRERRRNERLRRESVRPV
CD28 MFI at 33.3 nM (CD28 [1]; [5]): 4801 | Relative Luciferase Units (RLU), CD80 Conc 5.0 nM (CD28 [2]; Table E24, 5.0 nM): 926 RLU | CTLA4 MFI at 33.3 nM (huCTLA4; [6]): 23932

B7: R29C/E35D/M47L/V68M/A71G/L85M (protein, UniProt P33681 35-288, looked up, variant R29C E35D M47L V68M A71G L85M)
T-lymphocyte activation …: VIHVTKEVKEVATLSCGHNVSVEELAQTCIYWQKDKKMVLTMMSGDLNIWPEYKNRTIFDITNNLSIMILGLRPSDEGTYECVVMKYEKDAFKREHLAEVTLSVKADFPTPSISDFEIPTSNIRRIICSTSGGFPEPHLSWLENGEELNAINTTVSQDPETELYAVSSKLDFNMTTNHSFMCLIKYGHLRVNQTFNWNTTKQEHFPDNLLPSWAITLISVNGIFVICCLTYCFAPRCRERRRNERLRRESVRPV
modifications: Fc fusion
CD28 MFI at 33.3 nM (CD28 [1]; [4]): 16 | Relative Luciferase Units (RLU), CD80 Cone 5.0 nM (CD28 [2]; Table E13, 5.0 nM): 155 RLU | CTLA4 MFI at 33.3 nM (huCTLA4; Table E11, 33.3 nM): 91
